B1: humanized BCF2 Fab fragment (Fab, V domains shown)
VH: EVQLVQSGAEVKKPGATVKISCKVSGYTFTDHTMNWVQQAPGKGLEWMGLINPFNGDATYKQKFQGRVTITADTSTDTAYMELSSLRSEDTAVYYCARYGNYAMDYWGQGTTVTVSS
VL: DIVMTQTPLSLSVTPGQPASISCKASQSVDFDGESYMNWYLQKPGQPPQLLIYVVSNLESGVPDRFSGSGSGTDFTLKISRVEAEDVGVYYCQQSNEDPLTFGGGYKVEIKR
B2: Fab fragment comprised of mouse 9.3 variable domains and human constant domains (Fab, V domains shown)
VH: EVKLQQSGPGLVTPSQSLSITCTVSGFSLSDYGVHWVRQSPGQGLEWLGVIWAGGGTNYNSALMSRKSISKDNSKSQVFLKMNSLQADDTAVYYCARDKGYSYYYSMDYWGQGTSVTVSS
VL: DIELTQSPASLAVSLGQRATISCRASESVEYYVTSLMQWYQQKPGQPPKLLIFAASNVESGVPARFSGSGSGTNFSLNIHPVDEDDVAMYFCQQSRKVPYTFGGGTKLEIKR
B3: humanized D1.3 Fab (Fab, V domains shown)
VH: QVQLQESGPGLVKPSETLSLTCTVSGGSVSGYGVNWIRQPPGKGLEWIGMIWGDGNTDYNSSLKSRVTISVDTSKNQFSLKLSSVTAADTAVYYCARERDYRLDYWGQGTLVTVSS
VL: AIRMTQSPFSLSASVGDRVTITCRASGNIHNYLAWYQQKPAKAPKLFIYYTTTLADGVPSRFSGSGSGTDYTLTISSLQPEDFATYYCQHFWSTPRTFGGGTKVEIKR
B4: (Fab)'2 fragment of mouse BCF2 IgG (other)
chain 1: DIVLTQSPVSLAVSVGQRATISCKASQSVDFDGESYMNWYQQKPGQPPKLLIYVVSNLESGIPARFSGSGSGTDFTLNIHPVEEEDAATYYCQQSNEDPLTFGAGTNLELKR
chain 2: EVQLQQSGPELVKPGASMKISCKVSGYSFTDHTMNWVKQSHGKNLELIGLINPFNGDATYKQKFTGKATLTVDRSSSTAFMELLSLTSEDSAVYYCARYGNYAMDYWGQGTSVTVSS

How the values were obtained:
scorpion toxin = scorpion toxin (Centruroides noxius, UniProt P01495 17-82); experiment: BIAcore SPR, toxin immobilized, antibody in solution, from kinetic rate constants
CD28Ig = CD28Ig (human, UniProt P10747 19-152); experiment: ELISA, CD28Ig coated plates, anti-human k conjugate
chicken lysozyme = molecular target: T1, chicken lysozyme (chicken, UniProt P00698 19-147); experiment: fluorescence quench titration (FIG. 7 legend)
T1 construct: The assay paragraph says only 'lysozyme'; also called chicken lysozyme antigen

Binder	Kd (scorpion toxin) [nM]	other results
B1	140	
B2		EC50 (CD28Ig): 20 nM
B3		Ka (chicken lysozyme): > 1e+08 M⁻¹
B4	10	

Reference: US20070003547A1 (published 2007)
